Data as given in patent publication US20070149456A1, “Epithelial sodium channel inhibiting agents and uses therefor” (University of Pittsburgh, priority 2005, published 2007).

Molecular target: T1, mouse ENaC (Mus musculus, UniProt Q61180+Q9WU38+Q9WU39, DEL206-231)
T1 construct: expressed in transfected cells; host or cells: Xenopus laevis oocytes (cRNA injection)
T1 sequence (Q61180 with tags, fused parts or gaps DEL206-231): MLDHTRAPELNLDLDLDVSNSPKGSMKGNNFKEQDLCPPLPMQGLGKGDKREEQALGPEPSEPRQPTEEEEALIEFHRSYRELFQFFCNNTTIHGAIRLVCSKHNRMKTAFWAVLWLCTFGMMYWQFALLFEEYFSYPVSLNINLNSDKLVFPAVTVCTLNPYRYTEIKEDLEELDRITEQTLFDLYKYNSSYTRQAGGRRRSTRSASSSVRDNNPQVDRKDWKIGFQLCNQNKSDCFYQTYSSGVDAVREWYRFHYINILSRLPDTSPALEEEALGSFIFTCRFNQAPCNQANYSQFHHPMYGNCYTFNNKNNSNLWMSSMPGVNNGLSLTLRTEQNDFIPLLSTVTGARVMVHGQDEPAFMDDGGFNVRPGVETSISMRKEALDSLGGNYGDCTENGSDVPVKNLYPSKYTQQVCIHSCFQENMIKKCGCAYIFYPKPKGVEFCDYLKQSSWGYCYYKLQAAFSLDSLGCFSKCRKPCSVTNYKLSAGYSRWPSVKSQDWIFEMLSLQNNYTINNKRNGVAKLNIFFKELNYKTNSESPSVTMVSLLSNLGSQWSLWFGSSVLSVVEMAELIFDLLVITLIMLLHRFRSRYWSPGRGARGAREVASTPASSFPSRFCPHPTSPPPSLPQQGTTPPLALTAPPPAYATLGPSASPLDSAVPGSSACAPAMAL
T1 sequence (Q9WU38 1-638): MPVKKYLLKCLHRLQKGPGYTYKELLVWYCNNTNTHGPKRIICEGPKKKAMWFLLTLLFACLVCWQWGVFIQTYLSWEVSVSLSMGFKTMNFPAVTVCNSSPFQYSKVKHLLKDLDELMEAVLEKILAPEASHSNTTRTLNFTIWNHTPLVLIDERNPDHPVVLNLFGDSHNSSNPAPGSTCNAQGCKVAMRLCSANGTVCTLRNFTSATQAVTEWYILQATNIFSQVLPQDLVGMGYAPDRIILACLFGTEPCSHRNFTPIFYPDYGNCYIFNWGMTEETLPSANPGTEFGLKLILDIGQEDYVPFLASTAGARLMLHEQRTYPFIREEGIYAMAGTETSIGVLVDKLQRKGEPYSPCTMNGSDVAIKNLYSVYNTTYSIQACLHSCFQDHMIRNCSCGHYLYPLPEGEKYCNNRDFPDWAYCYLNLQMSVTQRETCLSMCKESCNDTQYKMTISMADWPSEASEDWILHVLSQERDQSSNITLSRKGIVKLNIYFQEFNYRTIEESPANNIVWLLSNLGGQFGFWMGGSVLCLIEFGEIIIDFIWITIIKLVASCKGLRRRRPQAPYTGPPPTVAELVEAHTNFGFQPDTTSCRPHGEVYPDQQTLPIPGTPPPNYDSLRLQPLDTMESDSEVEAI
T1 sequence (Q9WU39 1-655): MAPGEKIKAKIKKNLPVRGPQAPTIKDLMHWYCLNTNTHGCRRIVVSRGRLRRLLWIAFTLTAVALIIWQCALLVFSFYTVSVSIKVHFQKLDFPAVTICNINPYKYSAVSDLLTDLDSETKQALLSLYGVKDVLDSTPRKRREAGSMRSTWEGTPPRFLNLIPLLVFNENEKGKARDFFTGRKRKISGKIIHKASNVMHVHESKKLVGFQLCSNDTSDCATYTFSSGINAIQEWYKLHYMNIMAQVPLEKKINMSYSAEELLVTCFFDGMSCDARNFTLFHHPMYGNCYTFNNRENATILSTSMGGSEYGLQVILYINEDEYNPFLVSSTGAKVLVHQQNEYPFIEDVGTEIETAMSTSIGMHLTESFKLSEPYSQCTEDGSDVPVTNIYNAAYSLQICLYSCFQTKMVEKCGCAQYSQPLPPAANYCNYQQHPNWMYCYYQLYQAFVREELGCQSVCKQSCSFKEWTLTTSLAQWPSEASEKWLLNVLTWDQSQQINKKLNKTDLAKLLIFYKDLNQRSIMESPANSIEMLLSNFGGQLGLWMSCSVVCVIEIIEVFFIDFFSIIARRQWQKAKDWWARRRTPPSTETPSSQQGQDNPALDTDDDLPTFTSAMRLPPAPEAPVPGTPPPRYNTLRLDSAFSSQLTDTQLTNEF
Assay: Two-electrode voltage clamp, amiloride-sensitive whole cell Na+ current in Xenopus oocytes expressing wild-type αβγ ENaC
Type: cell-based
Conditions: peptide 10 μM (FIG. 3B)
Excerpt: Oocyte Expression—cRNAs for α, β, γ mouse ENaC (wild-type and mutant) subunits and mouse prostasin were synthesized with T3 or T7 m-Message mMachineTM (Ambion, Austin, Tex.). Subunits carrying furin cleavage consensus site mutations and the corresponding wild-type subunits have amino-terminal HA and carboxyl-terminal V5 tags (Hughey, R. P., Bruns, J. B., Kinlough, C. L., Harkleroad, K. L., Tong, Q., Carattino, M. D., Johnson, J. P., Stockand, J. D., and Kleyman, T. R. (2004) J. Biol. Chem. 279, 18111-18114 18). Stage V-VI Xenopus laevis oocytes were pretreated with 1.5 mg/ml of type IV collagenase and injected with 0.5-2 ng of cRNA/subunit. Injected oocytes were maintained as previously reported (Carattino, M. D., Hill, W. G., and Kleyman, T. R. (2003), Arachidonic Acid Regulates Surface Expression of Epithelial Sodium Channels, J Biol. Chem. 278, 36202-36213 29).
Two-electrode Voltage Clamp—Two-electrode voltage clamp (TEV) was performed as previously described (Carattino, M. D., Hill, W. G., and Kleyman, T. R. (2003) J Biol. Chem. 278, 36202-36213 29). The extracellular solution (TEV solution) was (in mM): 110 NaCl, 2 KCl, 1.54 CaCl2, 10 HEPES, pH 7.4, or otherwise as indicated. […] Experiments with oocytes co-expressing ENaC and prostasin and the corresponding controls were performed in the presence of aprotinin (1 μM) to impede any potential degradation of α-26 by prostasin.
Data and Statistical Analyses—and mean time of inhibition are expressed as the mean with a 95% confidence interval (CI); otherwise, data were expressed as the mean ±S.E. (n), where “n” equals the number of independent experiments analyzed. IC50 was estimated from normalized currents plotted as a function of the peptide concentration fitted, as shown in Equation 1 y=t/(1+10^(logX−log/C50)) (Eq. 1) where y is the response variable, X is the concentration of peptide, and IC50 is the concentration of peptide that provokes a response half way between the baseline (t) and maximum response. […] Results

In the case of “DLEGALPHPLQELETPPPPNPAESAE (Ac-DLEGALPHPLQELETPPPPNPAESAE-NH2) [R/E]”, the “block of ENaC currents by related peptides” value is reported as “significant reduction in the block”.

“DLRGALAHALQRLRTAAAANAARSAR (Ac-DLRGALAHALQRLRTAAAANAARSAR-NH2) [P/A]” was tested, and the “block of ENaC currents by related peptides” value was “significant reduction in the block”.
